Results on five substances are retold here after PMC3864903.

The target in assay [1] is rNav1.4 voltage-gated sodium channel α subunit (rat) (UniProt P15390).
Assay [2] shares this target. This is another data set of the same source.
Assay [3] shares this target. The source holds these as a separate data set.
Assay [4] shares this target. The source holds these as a separate data set.

Consider “rNavβ1 point mutant C43A (from UniProt Q00954 19-218) (natural protein)”, for which, in assay [1], the Activation V1/2 of sodium currents, two electrode voltage clamp, co-expression in oocytes was -29 mV and the Inactivation V1/2 (steady-state inactivation) was -59.1 mV. Besides, in assay [2], the Recovery from inactivation F (fast) was found to be 0.89, the Recovery from inactivation τ (fast) worked out at 2.7 ms and the Recovery from inactivation τ (slow) is 636 ms. Moreover, in assay [3], the Slowing of the current recovery after 1 ms, against WT β1 was 95%. In assay [4], this substance had a Use-dependent current decline on repetitive depolarisations at 1 Hz (10% after the second pulse, cumulative rundown 20%) of 20% and a Use-dependent current rundown on repetitive depolarisations at 5 Hz (data not shown) of 20%.

In assay [1], “rNavβ1 point mutant G33M (from UniProt Q00954 19-218) (natural protein)” yielded an Activation V1/2 of sodium currents, two electrode voltage clamp, co-expression in oocytes of -32.5 mV and an Inactivation V1/2 (steady-state inactivation) of -56 mV. Moreover, in assay [2], the Inactivation rate τ (inac) of the peak current at −20 mV turned out to be 0.46 ms and the Recovery from inactivation τ (slow) was 760 ms.

Turning to “rNavβ1 point mutant R89A (from UniProt Q00954 19-218) (natural protein)”, in assay [1], the Activation V1/2 of sodium currents, two electrode voltage clamp, co-expression in oocytes was -33 mV and the Inactivation V1/2 (steady-state inactivation) is -62.6 mV. In assay [2], this substance displayed an Inactivation rate τ (inac) of the peak current at −20 mV of 2.6 ms, a Recovery from inactivation F (fast) of 0.92, a Recovery from inactivation τ (fast) of 2.3 ms and a Recovery from inactivation τ (slow) of 376 ms. The substance also showed a Slowing of the current recovery after 1 ms, against WT β1 in assay [3] of 90%.

Consider “rNavβ1 point mutant Y32A (from UniProt Q00954 19-218) (natural protein)”, for which, in assay [1], the Activation V1/2 of sodium currents, two electrode voltage clamp, co-expression in oocytes is -34 mV and the Inactivation V1/2 (steady-state inactivation) is -56 mV. In assay [2], this substance returned an Inactivation rate τ (inac) of the peak current at −20 mV of 0.48 ms and a Recovery from inactivation τ (slow) of 743 ms.

Consider “rNavβ1 voltage-gated sodium channel accessory subunit, wild type (from UniProt Q00954 19-218) (natural protein)”, for which, in assay [1], the Activation V1/2 of sodium currents, two electrode voltage clamp, co-expression in oocytes was -33.4 mV and the Inactivation V1/2 (steady-state inactivation) was -61.8 mV. In assay [2], this substance returned an Inactivation rate τ (inac) of the peak current at −20 mV of 0.6 ms, a Recovery from inactivation F (fast) of 0.93, a Recovery from inactivation τ (fast) of 1.7 ms and a Recovery from inactivation τ (slow) of 236 ms. The substance further showed a Current recovery from inactivation after a recovery interval of 1 ms in assay [3] of 50%.
